# Measured values as given in publication PMC4238996 (PLoS Neglected Tropical Diseases, 2014).
# Residue numbers refer to the chain shown, from its start.
# T1: GST-tagged MupFHA (Mup018c, residues 1-362), wild type (M. ulcerans Agy99 (plasmid pMUM001), UniProt Q6MZ86 1-362)
# T1 construct: also called MupFHA^wt; GST-MupFHA
# T1 sequence: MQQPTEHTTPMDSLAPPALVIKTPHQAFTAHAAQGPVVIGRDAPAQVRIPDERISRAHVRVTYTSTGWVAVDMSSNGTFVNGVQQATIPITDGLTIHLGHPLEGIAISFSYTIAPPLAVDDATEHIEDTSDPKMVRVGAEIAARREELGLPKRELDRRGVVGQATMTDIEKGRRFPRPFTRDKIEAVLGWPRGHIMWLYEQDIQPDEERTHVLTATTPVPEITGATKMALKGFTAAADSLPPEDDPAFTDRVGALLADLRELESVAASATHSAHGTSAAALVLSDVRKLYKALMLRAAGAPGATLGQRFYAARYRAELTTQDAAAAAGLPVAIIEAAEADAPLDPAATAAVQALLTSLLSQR
# B1: MBP-tagged MupDivIVA S43/45/49A triple mutant (natural protein)
# chain: MSHSELLDPALPKSPFGKQGYRYDDVDVFLRLIADELQGSDLAEADIHAITFRCAAPLTRGYDTESVDRFLDRIAETIARGHGDEGQ
# B2: MBP-tagged MupDivIVA-P (Mup012c residues 1-87, phosphorylated by co-expression with PknQ) (natural protein, M. ulcerans Agy99 (plasmid pMUM001), UniProt Q6MZ92 1-87, looked up)
# chain: B1 chain with A43S, A45S, A49S
# notes: also called phosphorylated MupDivIVA
# Target: T1, GST-tagged MupFHA (Mup018c, residues …)
# Test: ELISA
# Settings: both partners purified
row,Binder,binding result
1,B1,binds
2,B2,binds
